Test results taken from patent publication US7560245B2, “Luciferase and methods for measuring intracellular ATP using the same” (Kikkoman Corporation, priority 1997, dated 2009).
“And” between values parts separate entries of the source, which are not always exact repeats. Identical values can stand only once.

Experiments:
[1] = Surfactant resistance: change of light emission with time, 0.4% benzalkonium chloride; type: biochemical; settings: for decay of light emission with time: FIG. 2 and 3
Protocol: (§1) Enzyme samples were obtained by preparing luciferase samples derived from various firefly species using enzyme-diluted solution (1 mM EDTA, 1 mM 2-mercaptoethanol, 5% glycerol, 50 mM HEPES, (pH7.5)) to achieve 0.5 MLU/ml concentration.
(§2) 50 μl of 0.4% benzalkonium chloride (25 mM Tricine at pH 7.75) and then 50 μl of the enzyme sample were added to 100 μl of substrate solution (4 mM ATP, 0.4 mM luciferin, 10 mM magnesium sulfate, 50 mM HEPES (pH 7.5)). After the solution was stirred for 5 seconds, the light emission was measured every second using Berthold Lumat LB-9501 for 1 minute.
Along the vertical axis in this figure, the relative ratio of the light emission was plotted with the initial amount of light emitted considered to be 100% upon use of 25 mM Tricine (pH 7.75) instead of 0.4% benzalkonium chloride.
(§3) To compare surfactant resistance of mutant luciferase with that of known luciferase, changes in emission with time were measured according to the aforementioned methods of measuring surfactant resistance.

[2] = Comparison of emission rate (remaining activity) with 0.4% benzalkonium chloride; type: biochemical; settings: emission with 0.4% benzalkonium chloride divided by control (25 mM Tricine)
Protocol: as §1, §2
The influence of the enzyme solution, substrate solution and benzalkonium chloride used when measuring change with time, on the measurement values taken under actual emission measurement conditions, was examined.
In addition, the emission rate (remaining activity) was calculated by dividing the light emission measured in the presence of 0.4% benzalkonium chloride by a control value. Here the control value was the light emission upon use of 25 mM Tricine at pH 7.75 instead of 0.4% benzalkonium chloride.

[3] = Comparison of IC50: benzalkonium chloride concentration inactivating luciferase by 50%; type: biochemical; settings: 10 minutes contact at room temperature, 0.01 to 0.1% benzalkonium chloride
Protocol: Benzalkonium chloride and various luciferases were contacted with each other for 10 minutes. Then the benzalkonium chloride concentration (IC50), at which activity is inactivated by 50% was determined. Equal amounts of luciferase solution prepared at this concentration and 0.01 to 0.1% benzalkonium chloride were mixed, and then allowed to stand for 10 minutes at room temperature. Subsequently, 100 μl of substrate solution was added to the mixture. Immediately after addition, the light emission was measured using Berthold Lumat LB-9501.

E. coli ATCC 25922 = test: Detection of intracellular ATP, 0.25% BAC extraction reagent; type: cell-based, Escherichia coli; settings: for Relative ratio (%): TCA extraction method = 100%
Protocol: (§4) A standard technique used herein was TCA extraction method wherein intracellular ATP is extracted using trichloroacetic acid (TCA) and the amount of ATP extracted is measured using luciferin-luciferase luminescence reaction. TCA extraction method is excellent in extraction efficiency. Further in TCA extraction method no inhibition of luminescence reaction is caused by TCA because emission is measured after the sample containing TCA is diluted 1:100. Because of this dilution, however, TCA extraction method is complicated and can cause a decrease in the measuring sensitivity. Benzalkonium chloride (BAC, Japanese Pharmacopoeia) was used. ATP extraction reagent was prepared by dissolving this surfactant at 0.25% concentration into 25 mM Tricine (pH 7.75). Four strains, Escherichia coli (ATCC 25922), Staphylococcus aureus (ATCC 25923), Pseudomonas aeruginosa (ATCC 27853) and Enterococcus faecalis (ATCC 29212) were used. In standard techniques, a sample, undiluted solution, was prepared by culturing the prescribed microorganisms on a normal broth medium (produced by Eiken chemical Co., Ltd.) at 35° C. overnight. In the method of the present invention, a sample diluted solution was prepared by diluting an undiluted solution of the culture fluid to 1:100 with sterile water. Luminescence reagent was prepared by adding various luciferase to solution containing 0.15 mM luciferin, 6 mM EDTA, 15 mM magnesium acetate, 0.2 mM dithiothreitol, 0.5% BSA and 25 mM HEPES (pH 7.75). The amount of luciferase to be added was prepared such that the light emission produced when 100 μl of 2×10^−8 M ATP standard solution was added to 100 μl of the luminescence reagent would be the same amount of the light emission produced when a luminescence reagent attached to Luciferase LU (Kikkoman Corporation) was used. ATP extraction reagent 100 μl was added to 100 μl of a sample. The solution was allowed to stand for 20 seconds at room temperature. Then 100 μl of the luminescence reagent was added to this solution. Immediately after addition, the light emission was measured using Lumat LB-9501 produced by Berthold. 10% trichloro acetate solution 100 μl was added to 100 μl of a sample and the solution was allowed to stand for 1 minute. 25 mM Tricine (pH 7.75) 9.8 ml was added to this extract, and then the extract was well stirred. 25 mM Tricine (pH 7.75) and 100 μl of a luminescence reagent attached to CheckLite LU (produced by Kikkoman Corporation) were added to 100 µl of the sample. Immediately after addition, the light emission was measured using Lumat LB-9501 produced by Berthold. The relative ratio of the light emissions obtained by the use of the luminescence reagents using various luciferase types is also shown in these tables. Here the light emission obtained by the standard technique (TCA extraction method) was defined as 100%.

S. aureus ATCC 25923 = test: as above; type: cell-based, Staphylococcus aureus; settings: for Relative ratio (%): TCA extraction method = 100%
Protocol: as §4

P. aeruginosa ATCC 27853 = test: as above; type: cell-based, Pseudomonas aeruginosa; settings: for Relative ratio (%): TCA extraction method = 100%
Protocol: as §4

E. faecalis ATCC 29212 = test: as above; type: cell-based, Enterococcus faecalis; settings: for Relative ratio (%): TCA extraction method = 100%
Protocol: as §4

[4] = test system: Escherichia coli, Staphylococcus aureus, Pseudomonas aeruginosa and Enterococcus faecalis; test: Detection of intracellular ATP, summary over the four strains; type: cell-based; settings: 0.25% BAC extraction reagent
Protocol: as §4, with “In standard techniques, a sample, undiluted solution, was prepared by culturing the prescribed microorganisms on a normal broth medium (produced by Eiken chemical Co., Ltd.) at 35° C. overnight. In the method of the present invention, a sample diluted solution was prepared by diluting an undiluted solution of the culture fluid to 1:100 with sterile water.” left out, “ATP extraction reagent 100 μl was added to 100 μl of a sample. The solution was allowed to stand for 20 seconds at room temperature.” left out, “10% trichloro acetate solution 100 μl was added to 100 μl of a sample and the solution was allowed to stand for 1 minute. 25 mM Tricine (pH 7.75) 9.8 ml was added to this extract, and then the extract was well stirred.” left out, “Here the light emission obtained by the standard technique (TCA extraction method) was defined as 100%.” left out

[5] = Comparison of emission rate (remaining activity) with 0.4% benzalkonium chloride; type: biochemical; settings: for Light emission (RLU) Without extraction reagent: 25 mM Tricine pH 7.75 instead of 0.4% benzalkonium chloride; for Light emission (RLU) Without extraction reagent / Light emission (RLU) With extraction reagent: 5 seconds waiting, 3 seconds measuring; for Light emission (RLU) With extraction reagent: 0.4% benzalkonium chloride
[6] = Surfactant resistance: change of light emission with time, 0.8% benzethonium chloride; type: biochemical; settings: FIG. 4
Protocol: as §1
[…] After the solution was stirred for 5 seconds, the light emission was measured every second using Berthold Lumat LB-9501 for 1 minute.
as §3

North American firefly: luciferase derived from North American firefly, a commercial product (Sigma, L-9506) [reference compound]
initial light emission ([1]; FIG. 2): low in the initial light emission | decay of light emission with time [1]: decayed rapidly | Emission rate (remaining activity) [2]: 21.6% | IC50 (benzalkonium chloride concentration at which activity is inactivated by 50%) [3]: 0.014% | Measured value (RLU) (E. coli ATCC 25922): 153 RLU | Relative ratio (%) (E. coli ATCC 25922): (0.1) % | Measured value (RLU) (S. aureus ATCC 25923): 163 RLU | Relative ratio (%) (S. aureus ATCC 25923): (0.1) % | Measured value (RLU) (P. aeruginosa ATCC 27853): 553 RLU | Relative ratio (%) (P. aeruginosa ATCC 27853): (0.3) % | Measured value (RLU) (E. faecalis ATCC 29212): 113 RLU | Relative ratio (%) (E. faecalis ATCC 29212): (0.1) % | emission of the luminescence reagent [4]: No emission was observed | Light emission (RLU) Without extraction reagent [5]: 452563 RLU | Light emission (RLU) With extraction reagent [5]: 97790 RLU | luciferase activity (remaining) ([5]; in the presence of 0.1% benzalkonium chloride): about 20%

B1: HIK: Polypeptide of SEQ ID NO:6; HEIKE firefly luciferase with Ala217 substituted by Ile and Glu490 by Lys (protein, listed as Luciola lateralis)
chain: MENMENDENIVYGPEPFYPIEEGSAGAQLRKYMDRYAKLGAIAFTNALTGVDYTYAEYLEKSCCLGEALKNYGLVVDGRIALCSENCEEFFIPVLAGLFIGVGVAPTNEIYTLRELVHSLGISKPTIVFSSKKGLDKVITVQKTVTAIKTIVILDSKVDYRGYQSMDNFIKKNTPQGFKGSSFKTVEVNRKEQVALIMNSSGSTGLPKGVQLTHENIVTRFSHARDPIYGNQVSPGTAILTVVPFHHGFGMFTTLGYLTCGFRIVMLTKFDEETFLKTLQDYKCSSVILVPTLFAILNRSELLDKYDLSNLVEIASGGAPLSKEIGEAVARRFNLPGVRQGYGLTETTSAIIITPEGDDKPGASGKVVPLFKAKVIDLDTKKTLGPNRRGEVCVKGPMLMKGYVDNPEATREIIDEEGWLHTGDIGYYDEEKHFFIVDRLKSLIKYKGYQVPPAELESVLLQHPNIFDAGVAGVPDPIAGELPGAVVVLKKGKSMTEKEVMDYVASQVSNAKRLRGGVRFVDEVPKGLTGKIDGKAIREILKKPVAKM
decay of light emission with time [1]: decayed more slowly than that of the HEIKE I mutant | decay of light emission with time [6]: more slowly than that of HEIKE I mutant | Emission rate (remaining activity) [2]: 89.3% | IC50 (benzalkonium chloride concentration at which activity is inactivated by 50%) [3]: 0.032% | Measured value (RLU) (E. coli ATCC 25922): 97073 RLU | Relative ratio (%) (E. coli ATCC 25922): (73.1) % | Measured value (RLU) (S. aureus ATCC 25923): 76533 RLU | Relative ratio (%) (S. aureus ATCC 25923): (58.8) % | Measured value (RLU) (P. aeruginosa ATCC 27853): 131134 RLU | Relative ratio (%) (P. aeruginosa ATCC 27853): (78.0) % | Measured value (RLU) (E. faecalis ATCC 29212): 7914 RLU | Relative ratio (%) (E. faecalis ATCC 29212): (63.7) % | emission of the luminescence reagent [4]: more intense than that from wild-type HEIKE luciferase and thermostable luciferase | Light emission (RLU) Without extraction reagent [5]: 386429 RLU | Light emission (RLU) With extraction reagent [5]: 345159 RLU

B2: HLK: Polypeptide of SEQ ID NO:4; HEIKE firefly luciferase with Ala217 substituted by Leu and Glu490 by Lys (protein, listed as Luciola lateralis)
chain: MENMENDENIVYGPEPFYPIEEGSAGAQLRKYMDRYAKLGAIAFTNALTGVDYTYAEYLEKSCCLGEALKNYGLVVDGRIALCSENCEEFFIPVLAGLFIGVGVAPTNEIYTLRELVHSLGISKPTIVFSSKKGLDKVITVQKTVTAIKTIVILDSKVDYRGYQSMDNFIKKNTPQGFKGSSFKTVEVNRKEQVALIMNSSGSTGLPKGVQLTHENLVTRFSHARDPIYGNQVSPGTAILTVVPFHHGFGMFTTLGYLTCGFRIVMLTKFDEETFLKTLQDYKCSSVILVPTLFAILNRSELLDKYDLSNLVEIASGGAPLSKEIGEAVARRFNLPGVRQGYGLTETTSAIIITPEGDDKPGASGKVVPLFKAKVIDLDTKKTLGPNRRGEVCVKGPMLMKGYVDNPEATREIIDEEGWLHTGDIGYYDEEKHFFIVDRLKSLIKYKGYQVPPAELESVLLQHPNIFDAGVAGVPDPIAGELPGAVVVLKKGKSMTEKEVMDYVASQVSNAKRLRGGVRFVDEVPKGLTGKIDGKAIREILKKPVAKM
decay of light emission with time [1]: slower decay in the light emission | improvement of initial light emission ([1]; compared with HEIKE L mutant, FIG. 3): about 20% | decay of light emission with time [6]: slower decay in light emission than that of HEIKE L mutant | Emission rate (remaining activity) [2]: 101.7% and ~100% | IC50 (benzalkonium chloride concentration at which activity is inactivated by 50%) [3]: 0.035% | Measured value (RLU) (E. coli ATCC 25922): 87981 RLU | Relative ratio (%) (E. coli ATCC 25922): (66.3) % | Measured value (RLU) (S. aureus ATCC 25923): 72182 RLU | Relative ratio (%) (S. aureus ATCC 25923): (55.4) % | Measured value (RLU) (P. aeruginosa ATCC 27853): 131815 RLU | Relative ratio (%) (P. aeruginosa ATCC 27853): (78.4) % | Measured value (RLU) (E. faecalis ATCC 29212): 7998 RLU | Relative ratio (%) (E. faecalis ATCC 29212): (64.4) % | emission of the luminescence reagent [4]: more intense than that from wild-type HEIKE luciferase and thermostable luciferase | Light emission (RLU) Without extraction reagent [5]: 390289 RLU | Light emission (RLU) With extraction reagent [5]: 396764 RLU
